One block for each binder: values may come before it.
What was measured:
[1] = target: T1, rHuman ErbB2/Fc Chimera, CF (R&D Systems Cat#1129-ER) (human, UniProt P04626 23-652); test: ECL (MSD Multi-Spot) binding, antigen spotted on plate; Fab 5 nM;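 also: blank spot per well as comparator with Hit at signal to blank ratio of 4 or more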
T1 construct: Bought Fc chimera; also called human epidermal growth factor 2 receptor; HER2/neu; Fc part of the bought chimera not given

[2] = target: T2, rHuman HGF R/c-MET/Fc Chimera, CF (R&D Systems Cat#358-MT/CF) (human, UniProt P08581 25-932); test: as above
T2 construct: Bought Fc chimera; also called HGF R/Fc; hepatocyte growth factor receptor; Fc part of the bought chimera not given

[3] = target: T3, rHuman EGF R/Fc Chimera, CF (R&D Systems Cat#344-ER) (human, UniProt P00533 25-645); test: as above
T3 construct: Bought Fc chimera; also called epidermal growth factor receptor; Fc part of the bought chimera not given

[4] = target: T4, Recombinant Human DLL4 (R&D Systems Cat#1506-D4/CF) (human, UniProt Q9NR61 27-524); test: as above
T4 construct: Bought recombinant protein; also called delta-like protein 4

[5] = target: T5, rHuman IGF-1 sR, CF (R&D Systems Cat#391-GR) (human, UniProt P08069 31-932); test: as above
T5 construct: Bought soluble receptor; also called insulin-like growth factor-1 soluble receptor; IGF-R1

[6] = target: T1, rHuman ErbB2/Fc Chimera, CF (R&D …); test: ECL (MSD Multi-Spot) binding, antigen spotted on plate; Fab 500 nM;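 also: blank spot per well as comparator with Hit at signal to blank ratio of 4 or more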
[7] = target: T2, rHuman HGF R/c-MET/Fc Chimera, CF (R&D …); test: as above
[8] = target: T3, rHuman EGF R/Fc Chimera, CF (R&D …); test: as above
[9] = target: T4, Recombinant Human DLL4 (R&D Systems …); test: as above
[10] = target: T5, rHuman IGF-1 sR, CF (R&D Systems …); test: as above
[11] = target: T1, rHuman ErbB2/Fc Chimera, CF (R&D …); test: ECL (MSD Multi-Spot) binding, antigen spotted on plate; Fab 50 nM;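 also: blank spot per well as comparator with Hit at signal to blank ratio of 4 or more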
[12] = target: T2, rHuman HGF R/c-MET/Fc Chimera, CF (R&D …); test: as above
[13] = target: T3, rHuman EGF R/Fc Chimera, CF (R&D …); test: as above
[14] = target: T4, Recombinant Human DLL4 (R&D Systems …); test: as above
[15] = target: T5, rHuman IGF-1 sR, CF (R&D Systems …); test: as above
[16] = target: T6, Recombinant Human DLL4 (delta-like protein 4) (human, UniProt Q9NR61 27-524); test: SPR, Fab on recombinant human DLL4; standard deviation in parentheses
T6 construct: Bought (R&D Systems Cat#1506-D4/CF); also called rHuman DLL4

[17] = target: T6, Recombinant Human DLL4 (delta-like …); test: SPR, Fab on recombinant human DLL4

ECL signal [1]: 1380 | ECL signal [2]: 1020 | ECL signal [3]: 1160 | ECL signal [4]: 150000 | ECL signal [5]: 917 | ECL signal [6]: 2620 | ECL signal [7]: 2040 | ECL signal [8]: 2510 | ECL signal [9]: 29900 | ECL signal [10]: 1870 | ECL signal [11]: 2110 | ECL signal [12]: 1280 | ECL signal [13]: 2040 | ECL signal [14]: 94200 | ECL signal [15]: 1230
B1: Fab VH1-46_IGHD6-6*01_IGHJ1*01_S102A_S103P_S104F_H111F & L6_IGKJ1*01 (Fab, V domains shown)
VH: QVQLVQSGAEVKKPGASVKVSCKASGYTFTSYYMHWVRQAPGQGLEWMGIINPSGGSTSYAQKFQGRVTMTRDTSTSTVYMELSSLRSEDTAVYYCAREEYAPFSAEYFQFWGQGTLVTVSS
VL: not shown
notes: Fab made in E. coli; The heavy chain also carries the CH1 with Flag and His tags of Plasmid A, and the light chain the kappa constant region of Plasmid C

Kd [16]: 355 nM | kon [16]: 64500 M⁻¹ s⁻¹ | koff [17]: 0.023 s⁻¹
B2: Fab VH5-51_IGHD5-18*01>3_IGHJ4*01_G100K_G104T & V3-4_IGLJ1*01 (Fab, V domains shown)
VH: EVQLVQSGAEVKKPGESLKISCKGSGYSFTSYWIGWVRQMPGKGLEWMGIIYPGDSDTRYSPSFQGQVTISADKSISTAYLQWSSLKASDTAMYYCARRKYSYTYDYFDYWGQGTLVTVSS
VL: QTVVTQEPSFSVSPGGTVTLTCGLSSGSVSTSYYPSWYQQTPGQAPRTLIYSTNTRSSGVPDRFSGSILGNKAALTITGAQADDESDYYCVLYMGSGISYVFGTGTKVTVL
notes: Modified anti-DLL4 Fab; lambda Plasmid E)

Source: patent US20120058906A1 (published 2012)
